Experimental data taken from paper PMC11865472, “Structures of TGF-β with betaglycan and signaling receptors reveal mechanisms of complex assembly and signaling” (Nature Communications, 2025).

Biological target: T1, inhibin A (InhA), mature heterodimer, unlabelled (UniProt P05111 233-366; P08476 311-426)
T1 construct: inhibin α subunit, residues 233-366 of NP_002182.1; inhibin βA subunit, residues 311-426 of NP_002183.1; The His and Strep tags stood on the two chains of the pro-inhibin; source: expi293F, secreted as pro-inhibin, purified by His and Strep tags; mature dimer purified on C18 RPC; copies: 1 + 1
T1 sequence (looked up) 1: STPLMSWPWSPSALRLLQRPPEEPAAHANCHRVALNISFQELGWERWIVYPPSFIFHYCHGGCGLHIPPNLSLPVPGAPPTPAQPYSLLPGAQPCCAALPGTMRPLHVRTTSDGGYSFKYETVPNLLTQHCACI
T1 sequence (looked up) 2: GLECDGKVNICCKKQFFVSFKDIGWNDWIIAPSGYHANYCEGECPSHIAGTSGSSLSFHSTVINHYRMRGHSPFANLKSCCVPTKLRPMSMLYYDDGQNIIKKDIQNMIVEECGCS
Assay: NMR titration; methyl 1H-13C SOFAST-HMQC of labelled BG_ZP-C (15-25 µM) with growth factors; 25 mM 2H-glycine pH 11.0 or 25 mM phosphate pH 6.0; 37 °C
Conditions: both partners purified

B1: rat betaglycan ZP-C domain, bacterially expressed, isotopically labelled (domain or fragment, UniProt P26342 590-757, looked up)
chain: GNATFNMELYNTDLFLVPSPGVFSVAENEHVYVEVSVTKADQDLGFAIQTCFLSPYSNPDRMSDYTIIENICPKDDSVKFYSSKRVHFPIPHAEVDKKRFSFLFKSVFNTSLLFLHCELTLCSRKKGSLKLPRCVTPDDACTSLDATMIWTMMQNKKTFTKPLAVVLQ
modifications: 2H, 13C-methyl Isoleucine, Leucine, Valine (ILV) labeled
notes: betaglycan (TGFBR3), rat, residues 590-757 of NCBI NP_058952; A thrombin site lies between the Trx-His6 cassette and the domain; also called 13C-methyl-Ile BG_(ZP-C); ILV labeled BG_(ZP-C)
binding result: binds
